The subject of the test is RAJI cells. Nature of the test: JNG assay, co-culture with RAJI cells. Format: cell-based. The conditions noted are these: JNG cells expressing construct, co-culture with Raji. Summed up:
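Read-out is NFAT-driven GFP measured by flow cytometry after ~4–18 h co-culture of SAR-expressing JNG cells with target cells (E:T about 1:2). SARs were introduced by lentiviral spinfection and selected with puromycin or blasticidin when possible; scores (+/- to 5+ ≈ 5–50% GFP+) are relative to parental JNG cells.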

B1: 22243 (protein)
chain: MALPVTALLLPLALLLHAARPACQDKLTQWPKWLEGTGGGGSGGGGSGGGGSEFDIQMTQSPSSLSASVGDRVTITCKASDHINNWLAWYQQKPGQAPKLLIYGATTLETGVPSRFSGSGSGTDYTLTISSLQPEDFATYYCQQSWNTPWTFGQGTKLEIKRLEDLKNVFPPEVAVFEPSKAEIAHTQKATLVCLATGFYPDHVELSWWVNGKEVHSGVCTDPQPLKEQPALNDSRYCLSSRLRVSATFWQNPRNHFRCQVQFYGLSENDEWTQDRAKPVTQIVSAEAWGRADCGITSASYHQGVLSATILYEILLGKATLYAVLVSALVLMAMVKRKDSRGRAKRSGSGATNFSLLKQAGDVEENPGPTSATMDWIWRILFLVGAATGAHSGPQVQLQESGGGLAQAGGSLRLSCAASGRTFSMGWFRQAPGKEREFVAAITYSGGSPYYASSVRGRFTISRDNAKNTVYLQMNSLKPEDTAVYYCAANPTYGSDWNAENWGQGTQVTVSSGSGGGGSGGGGSGGGGSFEQVQLQQPGAELVKPGASVKMSCKASGYAFSSYWINWMKQKPGQGLEWIGQIYPGDGDTNYNGKFKGRATLTADTSSSTAYMQLSSLTSEDSAVYFCARSITTVVGCAMDYWGQGTSVTVSSTRIQNPDPAVYQLRDSKSSDKSVCLFTDFDSQTNVSQSKDSDVYITDKCVLDMRSMDFKSNSAVAWSNKSDFACANAFNNSIIPEDTFFPSSDVPCDVKLVEKSFETDTNLNFQNLSVIGFRILLLKVAGFNLLMTLRLWSSRAKRSGSGVKQTLNFDLLKLAGDVESNPGPSRGHMTEYKPTVRLATRDDVPRAVRTLAAAFADYPATRHTVDPDRHIERVTELQELFLTRVGLDIGKVWVADDGAAVAVWTTPESVEAGAVFAEIGPRMAELSGSRLAAQQQMEGLLAPHRPKEPAWFLATVGVSPDHQGKGLGSAVVLPGVEAAERAGVPAFLETSAPRNLPFYERLGFTVTADVEVPEGPRTWCMTRKPGA
Consider B1, for which the “NFAT-GFP ASSAY: Raji” value was “Raji (3+) (refer to approximately 5%, 10%, 20%, 30%, 40% and 50% GFP positive cells)”.

B2: 22244 (protein)
chain: MALPVTALLLPLALLLHAARPDIQMTQSPSSLSASVGDRVTITCKASDHINNWLAWYQQKPGQAPKLLIYGATTLETGVPSRFSGSGSGTDYTLTISSLQPEDFATYYCQQSWNTPWTFGQGTKLEIKRLEDLKNVFPPEVAVFEPSEAEISHTQKATLVCLATGFYPDHVELSWWVNGKEVHSGVCTDPQPLKEQPALNDSRYCLSSRLRVSATFWQNPRNHFRCQVQFYGLSENDEWTQDRAKPVTQIVSAEAWGRADCGFTSESYQQGVLSATILYEILLGKATLYAVLVSALVLMAMVKRKDSRGRAKRSGSGATNFSLLKQAGDVEENPGPTSATMDWIWRILFLVGAATGAHSGPSACPYSNPSLCSGSGGGGSGGGGSGGGGSFEQVQLQQPGAELVKPGASVKMSCKASGYAFSSYWINWMKQKPGQGLEWIGQIYPGDGDTNYNGKFKGRATLTADTSSSTAYMQLSSLTSEDSAVYFCARSITTVVGCAMDYWGQGTSVTVSSTRIQNPDPAVYQLRDSKSSDKSVCLFTDFDSQTNVSQSKDSDVYITDKCVLDMRSMDFKSNSAVAWSNKSDFACANAFNNSIIPEDTFFPSPESSCDVKLVEKSFETDTNLNFQNLSVIGFRILLLKVAGFNLLMTLRLWSSRAKRSGSGVKQTLNFDLLKLAGDVESNPGPSRGHMTEYKPTVRLATRDDVPRAVRTLAAAFADYPATRHTVDPDRHIERVTELQELFLTRVGLDIGKVWVADDGAAVAVWTTPESVEAGAVFAEIGPRMAELSGSRLAAQQQMEGLLAPHRPKEPAWFLATVGVSPDHQGKGLGSAVVLPGVEAAERAGVPAFLETSAPRNLPFYERLGFTVTADVEVPEGPRTWCMTRKPGA
As for B2, the “NFAT-GFP ASSAY: Raji” value is “Raji (+/-) (refer to approximately 5%, 10%, 20%, 30%, 40% and 50% GFP positive cells)”.

B3: 22241 (protein)
chain: MALPVTALLLPLALLLHAARPDIQMTQSPSSLSASVGDRVTITCKASDHINNWLAWYQQKPGQAPKLLIYGATTLETGVPSRFSGSGSGTDYTLTISSLQPEDFATYYCQQSWNTPWTFGQGTKLEIKRLEDLKNVFPPEVAVFEPSEAEISHTQKATLVCLATGFYPDHVELSWWVNGKEVHSGVCTDPQPLKEQPALNDSRYCLSSRLRVSATFWQNPRNHFRCQVQFYGLSENDEWTQDRAKPVTQIVSAEAWGRADCGFTSESYQQGVLSATILYEILLGKATLYAVLVSALVLMAMVKRKDSRGRAKRSGSGATNFSLLKQAGDVEENPGPTSATMDWIWRILFLVGAATGAHSYINIYNAEPANPSEKNSPSTQYAYGSGSSYINIYNAEPANPSEKNSPSTQYAYGSGGSYINIYNAEPANPSEKNSPSTQYAYGSGSSSYINIYNAEPANPSEKNSPSTQYAYGSGSGSYINIYNAEPANPSEKNSPSTQYAYGPSGSGGGGSGGGGSGGGGSFEQVQLQQPGAELVKPGASVKMSCKASGYAFSSYWINWMKQKPGQGLEWIGQIYPGDGDTNYNGKFKGRATLTADTSSSTAYMQLSSLTSEDSAVYFCARSITTVVGCAMDYWGQGTSVTVSSTRIQNPDPAVYQLRDSKSSDKSVCLFTDFDSQTNVSQSKDSDVYITDKCVLDMRSMDFKSNSAVAWSNKSDFACANAFNNSIIPEDTFFPSPESSCDVKLVEKSFETDTNLNFQNLSVIGFRILLLKVAGFNLLMTLRLWSSRAKRSGSGVKQTLNFDLLKLAGDVESNPGPSRGHMTEYKPTVRLATRDDVPRAVRTLAAAFADYPATRHTVDPDRHIERVTELQELFLTRVGLDIGKVWVADDGAAVAVWTTPESVEAGAVFAEIGPRMAELSGSRLAAQQQMEGLLAPHRPKEPAWFLATVGVSPDHQGKGLGSAVVLPGVEAAERAGVPAFLETSAPRNLPFYERLGFTVTADVEVPEGPRTWCMTRKPGA
Turning to B3, the “NFAT-GFP ASSAY: Raji” value is “Raji (4+) (refer to approximately 5%, 10%, 20%, 30%, 40% and 50% GFP positive cells)”.

B4: 22240 (protein)
chain: MALPVTALLLPLALLLHAARPDIQMTQSPSSLSASVGDRVTITCKASDHINNWLAWYQQKPGQAPKLLIYGATTLETGVPSRFSGSGSGTDYTLTISSLQPEDFATYYCQQSWNTPWTFGQGTKLEIKRLEDLKNVFPPEVAVFEPSEAEISHTQKATLVCLATGFYPDHVELSWWVNGKEVHSGVCTDPQPLKEQPALNDSRYCLSSRLRVSATFWQNPRNHFRCQVQFYGLSENDEWTQDRAKPVTQIVSAEAWGRADCGFTSESYQQGVLSATILYEILLGKATLYAVLVSALVLMAMVKRKDSRGRAKRSGSGATNFSLLKQAGDVEENPGPTSATMDWIWRILFLVGAATGAHSGPYINIYNAEPANPSEKNSPSTQYAYGGGSQLGPYELWELSHGSGGSGGGGSGGGGSGGGGSFEQVQLQQPGAELVKPGASVKMSCKASGYAFSSYWINWMKQKPGQGLEWIGQIYPGDGDTNYNGKFKGRATLTADTSSSTAYMQLSSLTSEDSAVYFCARSITTVVGCAMDYWGQGTSVTVSSTRIQNPDPAVYQLRDSKSSDKSVCLFTDFDSQTNVSQSKDSDVYITDKCVLDMRSMDFKSNSAVAWSNKSDFACANAFNNSIIPEDTFFPSPESSCDVKLVEKSFETDTNLNFQNLSVIGFRILLLKVAGFNLLMTLRLWSSRAKRSGSGVKQTLNFDLLKLAGDVESNPGPSRGHMTEYKPTVRLATRDDVPRAVRTLAAAFADYPATRHTVDPDRHIERVTELQELFLTRVGLDIGKVWVADDGAAVAVWTTPESVEAGAVFAEIGPRMAELSGSRLAAQQQMEGLLAPHRPKEPAWFLATVGVSPDHQGKGLGSAVVLPGVEAAERAGVPAFLETSAPRNLPFYERLGFTVTADVEVPEGPRTWCMTRKPGA
Regarding B4, the “NFAT-GFP ASSAY: Raji” value is “Raji (3+) (refer to approximately 5%, 10%, 20%, 30%, 40% and 50% GFP positive cells)”.

These data come from US20230212319A1, “NOVEL ANTIGEN BINDING DOMAINS AND SYNTHETIC ANTIGEN RECEPTORS INCORPORATING THE SAME” (University of Southern California, priority 2020, published 2023).
